The source of these data is article PMC12197871 (Protein Science : A Publication of the Protein Society, 2025).

For the series, the target named is GsLDH (Geobacillus stearothermophilus, UniProt P00344). In words: GsLDH kinetic studies. Format: biochemical.

B1: Gln189Leu: GsLDH single mutant Gln189Leu, located at the dimer–dimer interface (protein, UniProt P00344 1-317, looked up, variant Q189L)
L-lactate dehydrogenase: MKNNGGARVVVIGAGFVGASYVFALMNQGIADEIVLIDANESKAIGDAMDFNHGKVFAPKPVDIWHGDYDDCRDADLVVICAGANQKPGETRLDLVDKNIAIFRSIVESVMASGFQGLFLVATNPVDILTYATWKFSGLPHERVIGSGTILDTARFRFLLGEYFSVAPQNVHAYIIGEHGDTELPVWSLAYIGVMPIRKLVESKGEEAQKDLERIFVNVRDAAYQIIEKKGATYYGIAMGLARVTRAILHNENAILTVSAYLDGLYGERDVYIGVPAVINRNGIREVIEIELNDDEKNRFHHSAATLKSVLARAFTR
As for B1, where the note is “with FBP”, the “fold higher substrate inhibition (lower K i) compared to the WT” value is recorded as 20 fold. Moreover, under “with FBP (5 mM)”, the k cat was 83 s⁻¹ and the “k cat/K m or k cat/K 0.5” value came out at 106000 ± 19000 M⁻¹ s⁻¹. Also, where the note is “without FBP”, the k cat was 73 ± 12 s⁻¹, the “k cat/K m or k cat/K 0.5” value was 32000 ± 4000 M⁻¹ s⁻¹ and the “n (Hill coefficient)” value stood at 1.4 ± 0.1.

B2: WT: wild‐type L‐lactate dehydrogenase from Geobacillus stearothermophilus (UniProt P00344), N‐terminal His‐tagged (protein, UniProt P00344 1-317, looked up)
L-lactate dehydrogenase: MKNNGGARVVVIGAGFVGASYVFALMNQGIADEIVLIDANESKAIGDAMDFNHGKVFAPKPVDIWHGDYDDCRDADLVVICAGANQKPGETRLDLVDKNIAIFRSIVESVMASGFQGLFLVATNPVDILTYATWKFSGLPHERVIGSGTILDTARFRFLLGEYFSVAPQNVHAYIIGEHGDTELPVWSQAYIGVMPIRKLVESKGEEAQKDLERIFVNVRDAAYQIIEKKGATYYGIAMGLARVTRAILHNENAILTVSAYLDGLYGERDVYIGVPAVINRNGIREVIEIELNDDEKNRFHHSAATLKSVLARAFTR
modifications: N-terminal His-tag
For the molecule B2, under “with FBP (5 mM)”, the k cat was 64 s⁻¹ and the “k cat/K m or k cat/K 0.5” value was 144000 ± 67000 M⁻¹ s⁻¹. Besides, for the setting “without FBP”, the k cat was 118 ± 34 s⁻¹, the “k cat/K m or k cat/K 0.5” value is 43000 ± 13000 M⁻¹ s⁻¹ and the “n (Hill coefficient)” value stood at 1.5 ± 0.1.

B3: Triple mutant: previously reported GsLDH triple mutant with substitutions Arg104Cys, Gln189Leu and Asn293Ser (protein, UniProt P00344 1-317, looked up, variant R104C Q189L N293S)
L-lactate dehydrogenase: MKNNGGARVVVIGAGFVGASYVFALMNQGIADEIVLIDANESKAIGDAMDFNHGKVFAPKPVDIWHGDYDDCRDADLVVICAGANQKPGETRLDLVDKNIAIFCSIVESVMASGFQGLFLVATNPVDILTYATWKFSGLPHERVIGSGTILDTARFRFLLGEYFSVAPQNVHAYIIGEHGDTELPVWSLAYIGVMPIRKLVESKGEEAQKDLERIFVNVRDAAYQIIEKKGATYYGIAMGLARVTRAILHNENAILTVSAYLDGLYGERDVYIGVPAVINRNGIREVIEIELSDDEKNRFHHSAATLKSVLARAFTR
For B3, under “with FBP (5 mM)”, the k cat turned out to be 94 s⁻¹ and the “k cat/K m or k cat/K 0.5” value stood at 156000 ± 59000 M⁻¹ s⁻¹. In addition, where the note is “without FBP”, the k cat is 57 ± 8 s⁻¹ and the “k cat/K m or k cat/K 0.5” value turned out to be 141000 ± 18000 M⁻¹ s⁻¹.
